Results: paper PMC4456216 (Nature structural & molecular biology, 2015)

B1: mouse CBP KIX domain (domain or fragment)
chain: not shown
B2: mouse CRY1 CC peptide (residues 470-503) (peptide)
peptide: MVNHAEASRLNIERMKQIYQQLSRYRGLGLLASV
B3: BMAL2 transactivation domain (TAD), residues 540-579 (domain or fragment, mouse, UniProt Q2VPD4 540-579, looked up)
chain: LGFDVLCDSDSIDMAAFMNYLEAEGGLGDPGDFSDIQWAL

Columns and labels:
[1] = molecular target: B3; assay: ITC
[2] = molecular target: p300 KIX domain (residues 565-653) (mouse, UniProt B2RWS6 565-653); assay: NMR titration
p300 KIX domain (residues 565-653), sequence (B2RWS6 565-653): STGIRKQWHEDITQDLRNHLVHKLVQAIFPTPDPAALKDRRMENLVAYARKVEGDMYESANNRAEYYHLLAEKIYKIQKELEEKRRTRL

| Binder | stoichiometry N [1] | binding result [2] |
| --- | --- | --- |
| B1 | 0.7 | – |
| B2 | 0.7 | – |
| B3 | – | binds |
